Measured values taken from paper doi:10.1101/2022.08.12.503734.

Target: GST-Cln3-10A (S. cerevisiae (budding yeast)) (UniProt P13365)
Assay: pull-down

Cdk1, sequence (P00546 whole entry): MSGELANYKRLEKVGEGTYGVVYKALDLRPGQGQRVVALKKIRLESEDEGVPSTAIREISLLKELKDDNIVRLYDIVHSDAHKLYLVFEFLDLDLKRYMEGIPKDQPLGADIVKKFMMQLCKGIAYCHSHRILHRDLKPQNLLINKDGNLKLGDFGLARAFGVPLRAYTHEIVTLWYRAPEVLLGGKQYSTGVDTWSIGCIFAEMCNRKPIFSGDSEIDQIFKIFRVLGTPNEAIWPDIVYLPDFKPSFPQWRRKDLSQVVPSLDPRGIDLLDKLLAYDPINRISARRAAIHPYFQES
UniProt P13365, sequence (P13365 whole entry): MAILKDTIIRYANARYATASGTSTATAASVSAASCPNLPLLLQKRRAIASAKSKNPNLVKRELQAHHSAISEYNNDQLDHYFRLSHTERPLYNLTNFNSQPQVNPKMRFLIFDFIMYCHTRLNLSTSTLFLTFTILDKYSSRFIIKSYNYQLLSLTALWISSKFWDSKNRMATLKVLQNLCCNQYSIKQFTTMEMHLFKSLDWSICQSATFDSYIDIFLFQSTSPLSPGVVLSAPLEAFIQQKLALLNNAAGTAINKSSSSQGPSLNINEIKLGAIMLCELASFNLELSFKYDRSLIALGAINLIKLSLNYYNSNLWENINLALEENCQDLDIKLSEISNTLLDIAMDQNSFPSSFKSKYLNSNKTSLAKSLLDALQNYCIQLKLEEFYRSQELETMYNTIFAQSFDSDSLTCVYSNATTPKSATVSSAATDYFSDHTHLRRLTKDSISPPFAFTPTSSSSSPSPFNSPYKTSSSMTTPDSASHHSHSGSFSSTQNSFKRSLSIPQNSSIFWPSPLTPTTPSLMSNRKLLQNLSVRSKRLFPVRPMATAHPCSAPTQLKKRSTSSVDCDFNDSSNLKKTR

## Cdk1 (from UniProt P00546 1-298) (enzyme)
  fold lower amount of associated Cdk1 than with GST-Clb2: 6 fold
